# B1: RAGE EM-F/EM-R 64mer dsDNA probe (dsDNA)
# DNA 1: GGACTCCAGGTCCAGGACCGCCGTTTTTCGCGCGCACGGCGCGGGAGGTCCAGCTGGTCCACCTCC
# DNA 2: GGAGGTGGACCAGCTGGACCTCCCGCGCCGTGCGCGCGAAAAACGGCGGTCCTGGACCTGGAGTCC
# Legend:
# [1] = target: RAGE (full-length, recombinant) (UniProt Q62151 1-402); assay: EMSA
# [2] = target: RAGE (full-length, recombinant);MRE11 (Mus musculus?;, UniProt Q62151;P49959 1-402;1-708, |); assay: EMSA
# RAGE (full-length, recombinant);MRE11, sequence (Q62151 whole entry, chain 1 of 2): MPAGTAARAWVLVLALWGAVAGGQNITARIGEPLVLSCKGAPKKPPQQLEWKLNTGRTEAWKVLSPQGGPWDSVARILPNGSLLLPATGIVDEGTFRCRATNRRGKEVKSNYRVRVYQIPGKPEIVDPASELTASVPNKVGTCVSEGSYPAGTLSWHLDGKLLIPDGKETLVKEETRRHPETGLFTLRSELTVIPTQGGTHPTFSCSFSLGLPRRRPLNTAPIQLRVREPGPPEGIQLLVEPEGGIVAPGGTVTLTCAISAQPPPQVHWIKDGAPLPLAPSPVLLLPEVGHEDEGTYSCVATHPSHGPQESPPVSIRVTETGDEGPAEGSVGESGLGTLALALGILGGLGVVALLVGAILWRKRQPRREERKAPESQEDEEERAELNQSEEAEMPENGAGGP
# RAGE (full-length, recombinant);MRE11, sequence (P49959 whole entry, chain 2 of 2): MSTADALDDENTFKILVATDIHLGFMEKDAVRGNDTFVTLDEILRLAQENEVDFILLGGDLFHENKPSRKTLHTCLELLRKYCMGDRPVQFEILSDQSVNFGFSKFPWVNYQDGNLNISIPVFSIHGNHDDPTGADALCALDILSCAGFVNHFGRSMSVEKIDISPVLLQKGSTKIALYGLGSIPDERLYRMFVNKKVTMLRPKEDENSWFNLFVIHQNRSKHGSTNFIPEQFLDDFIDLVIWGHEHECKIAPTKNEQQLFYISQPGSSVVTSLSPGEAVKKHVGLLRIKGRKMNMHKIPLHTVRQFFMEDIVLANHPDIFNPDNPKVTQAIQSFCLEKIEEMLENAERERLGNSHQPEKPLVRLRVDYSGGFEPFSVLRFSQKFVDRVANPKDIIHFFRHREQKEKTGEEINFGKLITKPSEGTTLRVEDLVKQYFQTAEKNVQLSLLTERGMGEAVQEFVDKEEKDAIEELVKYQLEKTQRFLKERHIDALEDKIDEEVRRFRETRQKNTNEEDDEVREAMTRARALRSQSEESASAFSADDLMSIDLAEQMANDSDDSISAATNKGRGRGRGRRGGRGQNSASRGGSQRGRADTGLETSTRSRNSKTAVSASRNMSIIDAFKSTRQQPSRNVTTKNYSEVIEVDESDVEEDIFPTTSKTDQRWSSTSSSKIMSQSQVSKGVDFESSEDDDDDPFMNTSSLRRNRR
# RAGE (full-length, recombinant), sequence (Q62151 whole entry): as the sequence (Q62151 whole entry, chain 1 of 2) above
binder,measurement,setting,value
B1,binding result,[1],binds
same,binding result,[2],binds

# — publication PMC5737477
